Patent publication US20070286858A1 (Pfizer, published 2007)

Experiments:
[1] = biological target: T1, human RAGE-Fc fusion protein (human, UniProt Q15109 23-344); assay: direct binding ELISA, coated hRAGE-Fc
T1 construct: also called hRAGE-Fc; huRAGE-Fc; not shown: Fc domain of human IgG
Protocol: Antibodies were purified from hybridoma supernatants using standard procedures. Purified antibodies were evaluated for binding to soluble forms of RAGE with the use of ELISA. […] After washing and blocking with PBS containing 1% BSA and 0.05% Tween-20, 100 ul of sample (samples were in several forms: diluted immune serum, hybridoma supernatants, or purified antibodies, as indicated) was added and incubated for 1 hour at room temperature. The plates were washed with PBS, pH 7.2 and bound anti-RAGE antibodies were detected with the use of peroxidase-conjugated goat, anti-mouse IgG (H+L) (IgG) (Pierce, Rockford, Ill.) followed by incubation with the substrate TMB (BioFX Laboratories Owings Mills, Md. Laboratories). Absorbance values were determined at 450 nm in a spectrophotometer. The concentrations of monoclonal antibodies were determined with the use of peroxidase-labeled goat, anti-mouse IgG (Fcγ) (Pierce Rockford, Ill.) and a standard curve was generated by a purified, isotype-matched mouse IgG.

[2] = biological target: T1, human RAGE-Fc fusion protein; assay: ligand competition ELISA, panel Blocks hRAGE-Fc interaction with S100-A; blocked ligand S100-A
murine RAGE, full length = biological target: T2, murine RAGE, full length (mouse, UniProt Q62151 23-402); assay: cell-based ELISA, 293 cells transfected with murine RAGE
T2 construct: Expressed on 293 cells; also called mRAGE; 293-murine RAGE
T2 chain: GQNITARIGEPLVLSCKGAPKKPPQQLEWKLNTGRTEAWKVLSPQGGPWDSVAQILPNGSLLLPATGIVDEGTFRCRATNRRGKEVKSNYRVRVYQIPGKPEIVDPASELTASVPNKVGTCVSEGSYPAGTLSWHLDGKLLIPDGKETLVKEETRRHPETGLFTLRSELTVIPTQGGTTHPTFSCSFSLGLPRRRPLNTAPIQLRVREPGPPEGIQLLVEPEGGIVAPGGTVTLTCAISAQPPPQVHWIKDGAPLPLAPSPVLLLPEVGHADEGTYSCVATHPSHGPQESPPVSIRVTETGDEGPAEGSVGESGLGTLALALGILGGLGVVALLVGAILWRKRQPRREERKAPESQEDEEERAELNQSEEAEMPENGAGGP
Protocol: (§1) Human embryonic kidney 293 cells (American Tissue Type Culture, Manassas, Va.) cells were plated at 5×10⁶ cells per 10 cm² tissue culture plate and cultured overnight at 37° C. The next day cells were transfected with RAGE expression plasmids (pAdori1-3 vector encoding mouse, human, baboon, cynomologus monkey or rabbit RAGE) using LF2000 reagent (Invitrogen, Carlsbad Calif.) at a 4:1 ratio of reagent to plasmid DNA using the manufacturers protocol. Cells were harvested 48 hrs post-transfection using trypsin, washed once with phosphate buffered saline (PBS), then suspended in growth media without serum at a concentration of 2×10⁶ cells/ml.
(§2) Primary antibodies at 1 μg/ml were serially diluted at 1:2 or 1:3 in PBS containing 1% bovine serum albumin (BSA) in a 96-well plate. RAGE-transfected 293 cells or control parental 293 cells (50 μl) at 2×10⁶ cells/ml in serum-free growth medium were added to U-bottom 96 well plate for a final concentration of 1×10⁵ cells/well. The cells were centrifuged at 1600 rpm for 2 minutes. The supernatants were gently discarded by hand with a one-time swing and the plate was patted gently to loose the cell pellet. […] The cells were centrifuged and the supernatants are transferred to a fresh plate and read at 450 nm (Soft MAX pro 4.0, Molecular Devices Corporation, Sunnyvale, Calif.).

[3] = biological target: T1, human RAGE-Fc fusion protein; assay: ligand competition ELISA, panel Blocks hRAGE-Fc interaction with HMGB1; blocked ligand HMGB1
Protocol: Wells were washed and blocked as described above and exposed to 100 μl of pre-incubated mixtures of RAGE-Fc or TrkB-Fc (a non-specific Fc control), at 0.1 μg/ml, plus various forms of the indicated antibody preparation (dilutions of immune sera, hybridoma supernatants or purified antibodies) for 1 hour at room temperature.

[4] = biological target: T1, human RAGE-Fc fusion protein; assay: BIACORE direct binding, hRAGE-Fc immobilized
Protocol: The binding of selected murine and rat anti-RAGE antibodies to human and murine RAGE and to the V domains of human and murine RAGE was analyzed by BIACORE® direct binding assay. […] Solution of the anti-RAGE antibodies at two concentrations, 50 and 100 nm, were run over the immobilized RAGE-Fc proteins in duplicate. BIACORE™ technology utilizes changes in the refractive index at the surface layer upon binding of the anti-RAGE antibodies to the immobilized RAGE antigen. Binding is detected by surface plasmon resonance (SPR) of laser light refracting from the surface.
The kinetic rate constants (kₐ and kd) and association and dissociation constants (Kₐ and Kd) for the binding of murine and rat anti-RAGE antibodies to human and murine RAGE were determined by BIACORE™ direct binding assay. Analysis of the signal kinetics data for on-rate and off-rate allows the discrimination between non-specific and specific interactions.

human RAGE, full length = biological target: T3, human RAGE, full length (human, UniProt Q15109 23-404); assay: cell-based ELISA, 293 cells transfected with human RAGE
T3 construct: Expressed on 293 or CHO cells, or endogenous in human lung sections; also called hRAGE; cell-surface hRAGE
Protocol: as §1, §2

[5] = biological target: T1, human RAGE-Fc fusion protein; assay: ligand competition ELISA, panel Blocks hRAGE-Fc interaction with A-beta; blocked ligand amyloid beta 1-42 peptide

B1: XT-M4 (antibody, rat IgG2b, V domains shown)
VH: EVQLVESGGGLVQPGRSLKLSCVVSGFTFNNYWMTWIRQTPGKGLEWVASINNSGDNTYYPDSVKDRFTISRDNAKSTLYLQMNSLRSEDTATYYCTRGGDITTGFDYWGQGVMVTVSS
VL: DIQMTQSPSSMSVSLGDTITITCRASQDVGIYVNWFQQKPGKSPRRMIYRATNLADGVPSRFSGSRSGSIYSLTISSLESEDVADYHCLEFDEHPLTFGSGTKVEIK
notes: also called 1mRAGEP3/10; rat XT-M4
- EC50 [1]: 0.3 nM
- IC50 (read off the curve) [2]: ~0.07 µg/mL
- EC50 (murine RAGE, full length): ~2.2 nM
- IC50 (read off the curve) [3]: ~0.1 µg/mL
- Ka [4]: 1e+09 M⁻¹
- Kd [4]: 0.995 nM
- koff [4]: 0.00116 s⁻¹
- kon [4]: 1.16e+06 M⁻¹ s⁻¹
- EC50 (human RAGE, full length): ~0.84 nM
- IC50 (read off the curve) [5]: ~0.2 µg/mL
